In paper PMC6021343:

Target: Transferrin receptor 1 (human (endogenous in HeLa)) (UniProt P02786)
Sequence (P02786 whole entry): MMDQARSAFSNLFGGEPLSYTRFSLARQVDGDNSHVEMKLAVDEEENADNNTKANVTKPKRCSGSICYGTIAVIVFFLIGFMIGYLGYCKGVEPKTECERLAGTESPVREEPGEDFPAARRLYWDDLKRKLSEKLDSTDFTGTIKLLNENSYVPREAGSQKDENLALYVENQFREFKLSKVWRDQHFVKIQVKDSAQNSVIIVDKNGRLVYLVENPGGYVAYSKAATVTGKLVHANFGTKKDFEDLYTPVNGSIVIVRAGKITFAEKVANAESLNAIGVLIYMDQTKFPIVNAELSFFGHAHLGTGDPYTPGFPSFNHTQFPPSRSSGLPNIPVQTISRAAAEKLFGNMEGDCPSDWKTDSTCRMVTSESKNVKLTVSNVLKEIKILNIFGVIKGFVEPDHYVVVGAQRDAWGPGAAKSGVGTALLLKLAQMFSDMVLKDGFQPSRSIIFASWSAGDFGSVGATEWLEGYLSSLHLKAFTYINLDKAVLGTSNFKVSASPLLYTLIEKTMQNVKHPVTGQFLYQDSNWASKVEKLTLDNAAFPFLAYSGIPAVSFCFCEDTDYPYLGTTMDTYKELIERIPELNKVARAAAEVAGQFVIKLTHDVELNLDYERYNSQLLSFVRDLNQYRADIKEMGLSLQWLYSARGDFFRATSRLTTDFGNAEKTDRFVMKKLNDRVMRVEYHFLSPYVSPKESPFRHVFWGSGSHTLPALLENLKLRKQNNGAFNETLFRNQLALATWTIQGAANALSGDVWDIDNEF

human H-ferritin loaded with about 350 iron ions per cage, sequence (P02794 whole entry): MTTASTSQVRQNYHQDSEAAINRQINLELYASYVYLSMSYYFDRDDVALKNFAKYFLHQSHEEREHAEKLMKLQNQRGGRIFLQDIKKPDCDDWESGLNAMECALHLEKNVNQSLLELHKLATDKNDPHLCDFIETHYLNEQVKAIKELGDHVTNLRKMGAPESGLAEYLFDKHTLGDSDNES

Substance: human H-ferritin loaded with about 350 iron ions per cage (from UniProt P02794 1-183) (natural protein)
- iron uptake by HeLa cells (ICP-MS of lysates) after 5 h with H-350 1 μM: decrease of uptake when 20 μM Holo-transferrin was added to the medium: 50%
